*1 amine or outer side, *2 acyl side, *3 side chain or, on linkers, in order; H or OH if unused. Where no end group is shown, it is not given here. Side-chain parts run from the residue outwards. [ ]: non-standard residue; d: D form. The star is where a group is joined. C18 diacid = O=C(O)CCCCCCCCCCCCCCCCC(=O)*; C16 diacid = O=C(O)CCCCCCCCCCCCCCC(=O)*; γGlu = O=C(O)[C@H](CCC(=O)[*:2])N[*:1]; AEEA = NCCOCCOCC(=O)O
T1: CRF1R receptor (UniProt P34998 24-415, limits assumed)
T1 sequence (looked up): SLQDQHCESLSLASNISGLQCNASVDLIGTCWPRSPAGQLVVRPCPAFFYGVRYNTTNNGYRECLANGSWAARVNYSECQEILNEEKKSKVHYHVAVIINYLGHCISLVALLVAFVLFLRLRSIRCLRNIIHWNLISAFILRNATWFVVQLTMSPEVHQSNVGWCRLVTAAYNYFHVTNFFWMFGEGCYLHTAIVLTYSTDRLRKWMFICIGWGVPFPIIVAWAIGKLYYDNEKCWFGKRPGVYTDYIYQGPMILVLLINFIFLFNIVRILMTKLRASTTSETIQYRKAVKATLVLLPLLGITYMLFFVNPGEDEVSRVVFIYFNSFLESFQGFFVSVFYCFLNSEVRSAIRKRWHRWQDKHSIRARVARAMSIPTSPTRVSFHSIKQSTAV


Each binder was assayed against T1, CRF1R receptor (assay: cell-based or functional assay).

EC50 [µM]	Emax (% I) [%]	Binder
0.1	22	IVLSLD[dV]PIKLK([γGlu-γGlu-C16 diacid])QILLKQERQKKQREQAEKNKQILEQV-NH2 (N-terminus assumed; SMILES CC[C@H](C)[C@H](N)C(=O)N[C@H](C(=O)N[C@@H](CC(C)C)C(=O)N[C@@H](CO)C(=O)N[C@@H](CC(C)C)C(=O)N[C@@H](CC(=O)O)C(=O)N[C@@H](C(=O)N1CCC[C@H]1C(=O)N[C@H](C(=O)N[C@@H](CCCCN)C(=O)N[C@@H](CC(C)C)C(=O)N[C@@H](CCCCNC(=O)CC[C@H](NC(=O)CC[C@H](NC(=O)CCCCCCCCCCCCCCC(=O)O)C(=O)O)C(=O)O)C(=O)N[C@@H](CCC(N)=O)C(=O)N[C@H](C(=O)N[C@@H](CC(C)C)C(=O)N[C@@H](CC(C)C)C(=O)N[C@@H](CCCCN)C(=O)N[C@@H](CCC(N)=O)C(=O)N[C@@H](CCC(=O)O)C(=O)N[C@@H](CCCNC(=N)N)C(=O)N[C@@H](CCC(N)=O)C(=O)N[C@@H](CCCCN)C(=O)N[C@@H](CCCCN)C(=O)N[C@@H](CCC(N)=O)C(=O)N[C@@H](CCCNC(=N)N)C(=O)N[C@@H](CCC(=O)O)C(=O)N[C@@H](CCC(N)=O)C(=O)N[C@@H](C)C(=O)N[C@@H](CCC(=O)O)C(=O)N[C@@H](CCCCN)C(=O)N[C@@H](CC(N)=O)C(=O)N[C@@H](CCCCN)C(=O)N[C@@H](CCC(N)=O)C(=O)N[C@H](C(=O)N[C@@H](CC(C)C)C(=O)N[C@@H](CCC(=O)O)C(=O)N[C@@H](CCC(N)=O)C(=O)N[C@H](C(N)=O)C(C)C)[C@@H](C)CC)[C@@H](C)CC)[C@@H](C)CC)C(C)C)C(C)C) [SEQ ID NO 147]
0.0253	53	IVLSLD[dV]PIKLK([γGlu-C16 diacid])QILLKQERQKKQREQAEKNKQILEQV-NH2 (N-terminus assumed; SMILES CC[C@H](C)[C@H](N)C(=O)N[C@H](C(=O)N[C@@H](CC(C)C)C(=O)N[C@@H](CO)C(=O)N[C@@H](CC(C)C)C(=O)N[C@@H](CC(=O)O)C(=O)N[C@@H](C(=O)N1CCC[C@H]1C(=O)N[C@H](C(=O)N[C@@H](CCCCN)C(=O)N[C@@H](CC(C)C)C(=O)N[C@@H](CCCCNC(=O)CC[C@H](NC(=O)CCCCCCCCCCCCCCC(=O)O)C(=O)O)C(=O)N[C@@H](CCC(N)=O)C(=O)N[C@H](C(=O)N[C@@H](CC(C)C)C(=O)N[C@@H](CC(C)C)C(=O)N[C@@H](CCCCN)C(=O)N[C@@H](CCC(N)=O)C(=O)N[C@@H](CCC(=O)O)C(=O)N[C@@H](CCCNC(=N)N)C(=O)N[C@@H](CCC(N)=O)C(=O)N[C@@H](CCCCN)C(=O)N[C@@H](CCCCN)C(=O)N[C@@H](CCC(N)=O)C(=O)N[C@@H](CCCNC(=N)N)C(=O)N[C@@H](CCC(=O)O)C(=O)N[C@@H](CCC(N)=O)C(=O)N[C@@H](C)C(=O)N[C@@H](CCC(=O)O)C(=O)N[C@@H](CCCCN)C(=O)N[C@@H](CC(N)=O)C(=O)N[C@@H](CCCCN)C(=O)N[C@@H](CCC(N)=O)C(=O)N[C@H](C(=O)N[C@@H](CC(C)C)C(=O)N[C@@H](CCC(=O)O)C(=O)N[C@@H](CCC(N)=O)C(=O)N[C@H](C(N)=O)C(C)C)[C@@H](C)CC)[C@@H](C)CC)[C@@H](C)CC)C(C)C)C(C)C) [SEQ ID NO 151]
–	38	IVLSLD[dV]PIKLK([AEEA-AEEA-γGlu-C18 diacid])QILLKQERQKKQREQAEKNKQILEQV-NH2 (N-terminus assumed; SMILES CC[C@H](C)[C@H](N)C(=O)N[C@H](C(=O)N[C@@H](CC(C)C)C(=O)N[C@@H](CO)C(=O)N[C@@H](CC(C)C)C(=O)N[C@@H](CC(=O)O)C(=O)N[C@@H](C(=O)N1CCC[C@H]1C(=O)N[C@H](C(=O)N[C@@H](CCCCN)C(=O)N[C@@H](CC(C)C)C(=O)N[C@@H](CCCCNC(=O)COCCOCCNC(=O)COCCOCCNC(=O)CC[C@H](NC(=O)CCCCCCCCCCCCCCCCC(=O)O)C(=O)O)C(=O)N[C@@H](CCC(N)=O)C(=O)N[C@H](C(=O)N[C@@H](CC(C)C)C(=O)N[C@@H](CC(C)C)C(=O)N[C@@H](CCCCN)C(=O)N[C@@H](CCC(N)=O)C(=O)N[C@@H](CCC(=O)O)C(=O)N[C@@H](CCCNC(=N)N)C(=O)N[C@@H](CCC(N)=O)C(=O)N[C@@H](CCCCN)C(=O)N[C@@H](CCCCN)C(=O)N[C@@H](CCC(N)=O)C(=O)N[C@@H](CCCNC(=N)N)C(=O)N[C@@H](CCC(=O)O)C(=O)N[C@@H](CCC(N)=O)C(=O)N[C@@H](C)C(=O)N[C@@H](CCC(=O)O)C(=O)N[C@@H](CCCCN)C(=O)N[C@@H](CC(N)=O)C(=O)N[C@@H](CCCCN)C(=O)N[C@@H](CCC(N)=O)C(=O)N[C@H](C(=O)N[C@@H](CC(C)C)C(=O)N[C@@H](CCC(=O)O)C(=O)N[C@@H](CCC(N)=O)C(=O)N[C@H](C(N)=O)C(C)C)[C@@H](C)CC)[C@@H](C)CC)[C@@H](C)CC)C(C)C)C(C)C) [SEQ ID NO 150]
> 0.25	24	IVLSLD[dV]PIKLK([γGlu-C16 diacid])QILLKQERQKKQREQAEKNVQILEQV-NH2 (N-terminus assumed; SMILES CC[C@H](C)[C@H](N)C(=O)N[C@H](C(=O)N[C@@H](CC(C)C)C(=O)N[C@@H](CO)C(=O)N[C@@H](CC(C)C)C(=O)N[C@@H](CC(=O)O)C(=O)N[C@@H](C(=O)N1CCC[C@H]1C(=O)N[C@H](C(=O)N[C@@H](CCCCN)C(=O)N[C@@H](CC(C)C)C(=O)N[C@@H](CCCCNC(=O)CC[C@H](NC(=O)CCCCCCCCCCCCCCC(=O)O)C(=O)O)C(=O)N[C@@H](CCC(N)=O)C(=O)N[C@H](C(=O)N[C@@H](CC(C)C)C(=O)N[C@@H](CC(C)C)C(=O)N[C@@H](CCCCN)C(=O)N[C@@H](CCC(N)=O)C(=O)N[C@@H](CCC(=O)O)C(=O)N[C@@H](CCCNC(=N)N)C(=O)N[C@@H](CCC(N)=O)C(=O)N[C@@H](CCCCN)C(=O)N[C@@H](CCCCN)C(=O)N[C@@H](CCC(N)=O)C(=O)N[C@@H](CCCNC(=N)N)C(=O)N[C@@H](CCC(=O)O)C(=O)N[C@@H](CCC(N)=O)C(=O)N[C@@H](C)C(=O)N[C@@H](CCC(=O)O)C(=O)N[C@@H](CCCCN)C(=O)N[C@@H](CC(N)=O)C(=O)N[C@H](C(=O)N[C@@H](CCC(N)=O)C(=O)N[C@H](C(=O)N[C@@H](CC(C)C)C(=O)N[C@@H](CCC(=O)O)C(=O)N[C@@H](CCC(N)=O)C(=O)N[C@H](C(N)=O)C(C)C)[C@@H](C)CC)C(C)C)[C@@H](C)CC)[C@@H](C)CC)C(C)C)C(C)C) [SEQ ID NO 13]

Reference: patent US20260001928A1 (CORTERIA PHARMACEUTICALS, priority 2022, published 2026)
